We go through two molecules from patent US20200399344A1 (SHATTUCK LABS, published 2020).

The target of assay [1] is T1, recombinant human CD2 protein (rhCD2-His) (human, UniProt P06729 25-209).
T1 construct: also called recombinant CD2 protein; not shown: His tag
T1 sequence (looked up): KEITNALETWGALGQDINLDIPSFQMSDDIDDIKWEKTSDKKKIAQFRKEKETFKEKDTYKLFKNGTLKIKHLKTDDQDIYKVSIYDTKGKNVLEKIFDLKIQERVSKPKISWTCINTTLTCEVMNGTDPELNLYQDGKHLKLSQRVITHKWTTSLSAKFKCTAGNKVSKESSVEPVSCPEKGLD
In words: ELISA: coat rhCD2-His (Acro CD2-H5226), detection Anti-hFc-HRP. The protocol: (§1) Recombinant human CD2 (rhCD2) protein was coated on plates. Increasing amounts of the indicated chimeric proteins or Recombinant human CD58-Fc fusion protein (rhCD58-Fc) were added and detected using an anti-mFc-HRP (for mCD80-Fc-NKG2A) or anti-hFc-HRP (for rest of the proteins).
(§2) CD2 is a transmembrane protein in T cells that binds to its ligand CD58 on APC in humans and on CD48 in rodents. To understand whether the CD48 and CD58 parts of the hCD48-Fc-NKG2A, and hCD58-Fc-NKG2A chimeric protein can bind CD2, ELISA-based assays were performed. Briefly, recombinant human CD2 protein (rhCD2-His) was coated on plates and increasing amounts of the hCD48-Fc-NKG2A, hCD58-Fc-NKG2A, and mCD80-Fc-NKG2A chimeric proteins and recombinant hCD58-Fc protein was added to the plates for capture by the plate-bound recombinant CD2 protein. The […] chimeric protein served as a negative control and recombinant hCD58-Fc protein served as a positive control. The hCD48-Fc-NKG2A and hCD58-Fc-NKG2A, chimeric proteins and recombinant hCD58-Fc protein bound to the recombinant CD2 protein was detected using an anti-human Fc HRP. The mCD80-Fc-NKG2A chimeric protein bound to the recombinant CD2 protein was detected using an anti-mouse Fc HRP.
For orientation: An ELISA detects its analyte on a solid surface through an enzyme-linked reagent.

The target in assay [2] is T2, recombinant human 2B4 protein (rh2B4-His) (human, UniProt Q9BZW8-2 22-221, limits assumed).
T2 construct: also called recombinant 2B4-His protein; not shown: His tag
T2 sequence (looked up): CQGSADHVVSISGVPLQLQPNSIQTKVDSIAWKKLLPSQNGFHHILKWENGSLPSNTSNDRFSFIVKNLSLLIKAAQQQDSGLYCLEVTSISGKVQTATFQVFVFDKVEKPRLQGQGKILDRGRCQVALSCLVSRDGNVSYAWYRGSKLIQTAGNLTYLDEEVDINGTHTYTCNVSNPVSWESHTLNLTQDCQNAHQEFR
In words: ELISA: coat rh2B4-His (Sino 10042-H08H), detection Anti-hFc-HRP. The method, then: (§3) Increasing amounts of the indicated chimeric proteins or rhCD48-Fc were added and detected using an anti-mFc-HRP (for mCD80-Fc-NKG2A) or anti-hFc-HRP (for rest of the proteins).
(§4) CD48 is the ligand for 2B4. To understand whether the CD48 parts of the hCD48-Fc-NKG2A chimeric protein can bind 2B4, ELISA-based assays were performed. Briefly, recombinant human 2B4 protein (rh2B4-His) was coated on plates and increasing amounts of the hCD48-Fc-NKG2A and mCD80-Fc-NKG2A chimeric proteins and recombinant human CD48-Fc (rhCD48-Fc) protein was added to the plates for capture by the plate-bound recombinant 2B4 protein. The hCD48-Fc-NKG2A chimeric protein and recombinant human CD48-Fc (rhCD48-Fc) protein bound to the recombinant 2B4 protein was detected using an anti-human Fc HRP. The mCD80-Fc-NKG2A chimeric protein, which was used as a negative control, bound to the recombinant 2B4 protein was detected using an anti-mouse Fc HRP.

Assay [3] addresses T2, recombinant human 2B4 protein …. Put plainly: ELISA: coat h2B4-His (Sino #10042-H08H), detection printed as Anti-mFc-HRP (Jax 115-036-003). The protocol: (§5) CD48 binds 2B4 (CD244), a member of the signaling lymphocyte-activation molecule (SLAM) family. To understand whether the CD48 part of the hCD48-Fc-NKG2A chimeric protein can bind […], ELISA-based assays were performed. Briefly, recombinant 2B4-His protein was coated on plates. Human CD28-His protein coated on negative control plates. Increasing amounts of the hCD48-Fc-NKG2A chimeric protein was added to the plates for capture by the plate-bound recombinant 2B4-His protein. […]

For assay [4], the target named is T3, recombinant human CD28-His (rhCD28-His) (human, UniProt P10747 19-152).
T3 construct: also called Human CD28-His protein; recombinant CD28 protein; not shown: His tag
T3 sequence (P10747 19-152 limits assumed): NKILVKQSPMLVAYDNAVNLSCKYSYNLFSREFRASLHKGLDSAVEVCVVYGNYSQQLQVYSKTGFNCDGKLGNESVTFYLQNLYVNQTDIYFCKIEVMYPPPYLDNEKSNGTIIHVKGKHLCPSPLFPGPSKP
In words: ELISA: coat hCD28-His (negative control coat), detection printed as Anti-mFc-HRP (Jax 115-036-003). The protocol:
as §5

Assay [5] has as its target T4, anti-human IgG antibody (plate-bound).
T4 construct: also called anti-human Fc antibody
In words: ELISA (single sided Fc): coat Anti-Human IgG (H+L) Jax# 109-005-088, detection HRP Goat anti-human FCgamma. The protocol: In another set of experiments, an anti-human IgG antibody was coated on plates and increasing amounts of the hCD48-Fc-NKG2A, hCD58-Fc-NKG2A, and hCD80-Fc-NKG2A chimeric proteins, and a human IgG antibody were added to the plates for capture by the plate-bound […]. The human IgG antibody was used as a positive control and to generate a standard curve. The binding to the anti-human IgG antibody was detected using an anti-human Fcgamma HRP.

For assay [6], the target named is T5, recombinant HLA-E-His protein (human, UniProt P13747 22-305, limits assumed).
T5 construct: also called recombinant HLA-E (HLA-E-His); not shown: His tag
T5 sequence (P13747 22-305 limits assumed): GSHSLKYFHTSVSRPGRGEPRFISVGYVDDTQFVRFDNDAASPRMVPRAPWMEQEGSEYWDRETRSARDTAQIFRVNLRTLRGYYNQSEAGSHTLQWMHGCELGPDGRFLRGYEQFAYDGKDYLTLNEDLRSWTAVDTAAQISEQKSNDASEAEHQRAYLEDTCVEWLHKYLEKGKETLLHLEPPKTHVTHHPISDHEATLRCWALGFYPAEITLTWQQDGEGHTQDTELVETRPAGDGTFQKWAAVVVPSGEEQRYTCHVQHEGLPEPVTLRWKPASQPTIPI
Put plainly: ELISA: the chimeric protein is the titrated coat (1:3), detection HLA-E-His (Novus NBP2-47435PEP), HRP Anti-6x-His-HRP. The method, then:
In a complementary experiment, increasing amounts of the hCD48-Fc-NKG2A, hCD58-Fc-NKG2A, and hCD80-Fc-NKG2A chimeric proteins or a negative control protein was coated on plates. Recombinant HLA-E-His protein was added to the plates for capture by the plate-bound chimeric proteins or the negative control protein. The captured HLA-E-His protein was detected using an anti-6×-His-HRP antibody.

Assay [7] concerns the target T6, recombinant human 2B4-Fc fusion protein (rh2B4-Fc) (human, UniProt Q9BZW8-2 22-221, limits assumed).
T6 construct: not shown: Fc
T6 sequence (looked up): T2 sequence (looked up)
In words: dual ELISA; coat rh2B4-Fc (for SL-048), CD48-Fc-NKG2a titrated, detection HLA-E-His, Anti 6x-His-HRP; the signal needs both bindings. The protocol: (i) recombinant human 2B4-Fc fusion protein (rh2B4-Fc) was coated on plates. Increasing amounts of the hCD48-Fc-NKG2A or hCD86-Fc-NKG2A chimeric proteins were added and detected using HLA-E-His. The hCD86-Fc-NKG2A chimeric protein was used as a negative control (Negative control #1). […] (ii) recombinant human CD2-Fc fusion protein (rhCD2-Fc) was coated on plates. Increasing amounts of the hCD58-Fc-NKG2A or hCD86-Fc-NKG2A chimeric proteins were added and detected using HLA-E-His. The hCD86-Fc-NKG2A chimeric protein was used as a negative control (Negative control #2).
To understand whether the hCD48-Fc-NKG2A chimeric protein can bind simultaneously to both 2B4 and HLA-E, the following ELISA experiment was carried out. Briefly, and recombinant 2B4 (rh2B4-Fc) protein was coated on plates. Increasing amounts of the hCD48-Fc-NKG2A chimeric protein was added to the plates for capture by the recombinant human 2B4-Fc (rh2B4-Fc) protein. Further, recombinant HLA-E (HLA-E-His) protein was added to the plate for capture by hCD48-Fc-NKG2A chimeric proteins. The binding of the HLA-E-His protein was detected using an anti-His 6× HRP antibody.

Assay [8] concerns the target T7, anti-mFc IgG antibody (plate-bound).
T7 construct: also called anti-Fc antibody
In words: Fc ELISA: coat Anti-mFc (Jax), detect Anti-mFc-HRP (Jax). The text has this:
A mouse whole IgG was used to generate a standard curve.

Assay [9] concerns the target T8, mTGFβ1, recombinant, plate-bound (mouse, UniProt P04202 279-390, limits assumed).
T8 construct: also called recombinant TGFβ1 protein
Put plainly: ELISA: coat mTGFB1 (R+D 7666-MB), detection Anti-mFc-HRP. The protocol:
TGFβ1 is a ligand of TGFBR2. To understand whether the TGFBR2 part of the TGFBR2-Fc-NKG2A chimeric protein can bind TGFβ1, ELISA-based assays were performed. Briefly, recombinant TGFβ1 protein was coated on plates and increasing amounts of the TGFBR2-Fc-NKG2A chimeric protein was added to the plates for capture by the plate-bound recombinant TGFβ1 protein. The chimeric protein bound to the recombinant TGFβ1 protein was detected using an anti-mFc HRP.

Assay [10] addresses T9, HLA class I histocompatibility antigen, alpha chain E (HLA-E), plate-bound recombinant protein (human, UniProt P13747 22-305, limits assumed).
T9 construct: no tag named there; also called recombinant HLA-E protein
Put plainly: ELISA (single-sided): coat hHLA-E (NOVUS), detect Anti-mFc-HRP (Jax).

In assay [11] the target is T10, mCD28, plate-bound (mouse, UniProt P31041 20-149, limits assumed).
T10 sequence (looked up): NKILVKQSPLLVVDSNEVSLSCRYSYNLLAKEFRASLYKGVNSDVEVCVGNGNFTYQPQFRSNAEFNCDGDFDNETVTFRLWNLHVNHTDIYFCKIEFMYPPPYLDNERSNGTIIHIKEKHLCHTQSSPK
In words: ELISA (single-sided): coat mCD28-Fc (Acro), detect Anti-mFc-HRP (Jax).

The target in assay [12] is mCTLA-4, plate-bound (mouse, UniProt P09793 36-162, limits assumed). In words: ELISA (single-sided): coat mCTLA-4-Fc (Acro), detect Anti-mFc-HRP (Jax).
In assay [13] the target is T1, recombinant human CD2 protein …. Put plainly: ELISA: coat rhCD2-His (Acro CD2-H5226), detection Anti-mFc-HRP for mCD80. The method, then: as §1, §2
Assay [14] has as its target T2, recombinant human 2B4 protein …. Put plainly: ELISA: coat rh2B4-His (Sino 10042-H08H), detection Anti-mFc-HRP for mCD80. The method, then:
as §3, §4

Values joined by “and” are separate entries in the source; they are usually repeats but may differ in a detail not shown here. Identical values can stand only once.

T9 sequence (P13747 22-305 limits assumed): as the sequence (P13747 22-305 limits assumed) above
T8 sequence (P04202 279-390 limits assumed): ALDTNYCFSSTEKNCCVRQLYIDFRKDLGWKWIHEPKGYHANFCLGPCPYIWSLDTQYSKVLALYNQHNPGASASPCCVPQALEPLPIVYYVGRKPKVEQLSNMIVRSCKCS

B1: human CD48-Fc-NKG2A chimeric protein (Fc fusion)
chain: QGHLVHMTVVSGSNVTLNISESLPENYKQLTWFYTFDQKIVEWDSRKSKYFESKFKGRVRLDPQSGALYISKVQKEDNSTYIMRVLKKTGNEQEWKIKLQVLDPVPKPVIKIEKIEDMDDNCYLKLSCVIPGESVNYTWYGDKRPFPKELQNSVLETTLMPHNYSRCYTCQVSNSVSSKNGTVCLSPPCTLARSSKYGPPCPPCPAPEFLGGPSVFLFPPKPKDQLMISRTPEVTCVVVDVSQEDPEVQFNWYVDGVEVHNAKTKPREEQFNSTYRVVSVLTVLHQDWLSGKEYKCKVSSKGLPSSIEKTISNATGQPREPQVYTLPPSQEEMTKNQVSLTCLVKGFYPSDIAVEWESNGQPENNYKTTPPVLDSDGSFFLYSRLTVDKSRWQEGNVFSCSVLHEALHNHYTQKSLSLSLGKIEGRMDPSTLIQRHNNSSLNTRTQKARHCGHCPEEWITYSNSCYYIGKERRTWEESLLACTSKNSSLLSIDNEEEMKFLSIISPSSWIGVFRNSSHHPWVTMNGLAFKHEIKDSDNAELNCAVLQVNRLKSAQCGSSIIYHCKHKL
notes: also called hCD48-Fc-NKG2A
For orientation: EC50 (read off the curve) means the concentration that produces a half-maximal response. With B1, the binding result in assay [1] is “binds”; in assay [4], “no binding (tested: log[Agonist] about 2.7, ug/ml)”. For the same molecule, the concentration giving a half-maximal response (EC50 (read off the curve)) in assay [2] is around 2 µg/mL; in assay [3], around 2 µg/mL; in assay [5], around 0.7 µg/mL; in assay [6], around 2 µg/mL; in assay [7] it was around 50 µg/mL.

B2: mouse CD80-Fc-NKG2A chimeric protein (Fc fusion)
chain: VDEQLSKSVKDKVLLPCRYNSPHEDESEDRIYWQKHDKVVLSVIAGKLKVWPEYKNRTLYDNTTYSLIILGLVLSDRGTYSCVVQKKERGTYEVKHLALVKLSIKADFSTPNITESGNPSADTKRITCFASGGFPKPRFSWLENGRELPGINTTISQDPESELYTISSQLDFNTTRNHTIKCLIKYGDAHVSEDFTWEKPPEDPPDSKNVPRDCGCKPCICTVPEVSSVFIFPPKPKDVLTITLTPKVTCVVVDISKDDPEVQFSWFVDDVEVHTAQTQPREEQFNSTFRSVSELPIMHQDWLNGKEFKCRVNSAAFPAPIEKTISKTKGRPKAPQVYTIPPPKEQMAKDKVSLTCMITDFFPEDITVEWQWNGQPAENYKNTQPIMDTDGSYFVYSKLNVQKSNWEAGNTFTCSVLHEGLHNHHTEKSLSHSPGIIEGRMDTPYTEAKAQINSSMTRTHRDINYTLSSAQPCPHCPKEWISYSHNCYFIGMERKSWNDSLVSCISKNCSLLYIDSEEEQDFLQSLSLISWTGILRKGRGQPWVWKEDSIFKPKIAEILHDECNCAMMSASGLTADNCTTLHPYLCKCKFPI
notes: also called mCD80-Fc-NKG2A; mCD80-Fc-NKG2a
As usually defined, the EC50 is the concentration needed to bring the measured effect to its halfway point. As for B2, the EC50 was 2.02 nM and 1.36 nM in assay [8]; 247 nM and 140 nM in assay [10]; 30.8 nM and 22.6 nM in assay [11]; 0.958 nM and 0.705 nM in assay [12]. Besides, the binding result in assay [9] is “no binding (tested: log[Agonist] about 2.7, ug/ml)”; in assay [13] it was “no binding (tested: log[Agonist] about 2.7, ug/ml)”; in assay [14], “no binding (tested: log[Agonist] about 2.7, ug/ml)”.
